Each sequence was assayed on Escherichia coli TOP10 (assay: shrunken log2 fold change of peptide-encoding DNA abundance (4.5 h post-induction vs induction); higher = less antimicrobial activity (less host growth inhibition)). Conditions: time post-induction: 4.5 h; library: site-saturation at positions 5, 18, 19, 20.
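Further: peptides expressed intracellularly from a pBAD plasmid library in pooled LB shake-flask culture, induced with 0.3% L-arabinose, DNA abundance read by NGS, three biological replicates, DESeq2 with apeglm shrinkage.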

Sequence	shrunken log2 fold change
RRIRNRPPRLPRPRPRPPFQPRP	0.0529
RRIRERPPRLPRPRPRPHLLPRP	0.0196
RRIRERPPRLPRPRPRPEFEPRP	-0.159
RRIRGRPPRLPRPRPRPLWLPRP	0.574
RRIRARPPRLPRPRPRPNVPPRP	0.0126
RRIRRRPPRLPRPRPRPMRGPRP	1.38
RRIRRRPPRLPRPRPRPSINPRP	-0.13
RRIRPRPPRLPRPRPRPSYYPRP	-0.721
RRIRARPPRLPRPRPRPWFVPRP	-0.0746
RRIRVRPPRLPRPRPRPFQMPRP	-0.333
RRIRERPPRLPRPRPRPQLYPRP	-0.441
RRIRLRPPRLPRPRPRPTMWPRP	0.145
RRIRRRPPRLPRPRPRPCLQPRP	-0.0554
RRIRSRPPRLPRPRPRPEWTPRP	0.329
RRIRRRPPRLPRPRPRPCTIPRP	-0.182
RRIRRRPPRLPRPRPRPDRDPRP	0.15
RRIRVRPPRLPRPRPRPNVMPRP	-0.173
RRIRMRPPRLPRPRPRPRCYPRP	-0.00529
RRIRTRPPRLPRPRPRPCTHPRP	-0.0873
RRIRGRPPRLPRPRPRPLYGPRP	-0.105
RRIRSRPPRLPRPRPRPQLRPRP	0.123
RRIRGRPPRLPRPRPRPKTMPRP	0.459
RRIRWRPPRLPRPRPRPNNVPRP	-0.207
RRIRERPPRLPRPRPRPLHSPRP	-0.0649
RRIRKRPPRLPRPRPRPFGNPRP	-0.171

Sequence	shrunken log2 fold change
RRIRCRPPRLPRPRPRPANRPRP	0.127
RRIRARPPRLPRPRPRPKKCPRP	0.0283
RRIRYRPPRLPRPRPRPTMKPRP	-0.285
RRIRDRPPRLPRPRPRPPQPPRP	0.387
RRIRSRPPRLPRPRPRPDIPPRP	-0.178
RRIRGRPPRLPRPRPRPQTPPRP	1.36
RRIRLRPPRLPRPRPRPIGDPRP	-0.118
RRIRWRPPRLPRPRPRPDRVPRP	0.0957
RRIRNRPPRLPRPRPRPTAMPRP	0.285
RRIRCRPPRLPRPRPRPMIGPRP	-0.0953
RRIRDRPPRLPRPRPRPMYQPRP	-0.075
RRIRLRPPRLPRPRPRPDNIPRP	-0.535
RRIRQRPPRLPRPRPRPDKWPRP	-0.00997
RRIRSRPPRLPRPRPRPFGKPRP	-0.0207
RRIRHRPPRLPRPRPRPFTLPRP	-0.312
RRIRSRPPRLPRPRPRPHGYPRP	-0.244
RRIRYRPPRLPRPRPRPVDQPRP	-0.611
RRIRYRPPRLPRPRPRPALRPRP	-0.0531
RRIRQRPPRLPRPRPRPFCDPRP	-0.259
RRIRERPPRLPRPRPRPWAFPRP	-0.165
RRIRCRPPRLPRPRPRPTMSPRP	-0.139
RRIRSRPPRLPRPRPRPIVWPRP	-0.0774
RRIRSRPPRLPRPRPRPLNVPRP	-0.0872
RRIRNRPPRLPRPRPRPHCCPRP	-0.215
RRIRKRPPRLPRPRPRPGRGPRP	0.593
